Results reported in patent US5807729A, “Metalloprotease having increased activity” (Novo Nordisk A/S, priority 1995, dated 1998).

Assays:
[1] = system: pro-trypsin-like F. oxysporum protease; assay: p45 metalloprotease pH stability; type: biochemical, Fusarium oxysporum; conditions: 20 minutes pre-incubation at room temperature
Description: To determine the pH stability of the recombinant p45 metalloprotease, the partially-purified p45 metalloprotease is diluted 10-fold into universal buffers at pH's of 3.5,4,4.5, 5.2, 5.64, 6, 7, 8, 9, and 10 and pre-incubated at room temperature for 20 minutes. The pre-incubated samples (10 microliters) are added to 40 microliters of buffer containing 0.1M borate, 2 mM CaCl2, and 10 mM dimethylglutarate, pH 6.5 and 50 microliters of crude A. oryzae broth containing pro-trypsin-like F. oxysporum protease and subsequently incubated another 30 minutes.

[2] = system: pro-trypsin-like F. oxysporum protease; assay: Processing of pro-trypsin-like F. oxysporum protease to active trypsin-like protease
Description: Activatable pro-trypsin-like F. oxysporum protease is determined in microtiter wells as released trypsin-like F. oxysporum protease (tryptic) activity from pro-trypsin-like F. oxysporum protease after a 40 minute pre-incubation at room temperature with purified Fusarium oxysporum metalloprotease (approximately 6 ug).
Processed pro-trypsin-like F. oxysporum protease(i.e. mature trypsin-like F. oxysporum protease) activity is determined directly from microtiter plates containing the pre-incubated metalloprotease/pro-trypsin-like F. oxysporum protease cocktail (total volume=100 microliters), and 100 microliters of substrate (87 mg/ml.L-BAPNA stock in DMSO diluted 50-fold in sample buffer). Again, active trypsin-like F. oxysporum protease is determined as an increase in absorbance at 405 nm immediately after L-BAPNA addition.
Purified pro-trypsin-like F. oxysporum protease is added to fresh A. oryzae fermentation broths containing the recombinant p45 metalloprotease (approximately 90 mg/L) and incubated for either 1, 2, or 3 hours at room temperature. Levels of pro-trypsin-like F. oxysporum protease in the incubation mixtures range from 100 ug/ml to 13 mg/ml.
Purified pro-trypsin-like F. oxysporum protease (100 ug/ml) is added to various amounts of either purified recombinant p45 metalloprotease or purified B.s. metalloprotease.

[3] = system: pro-trypsin-like F. oxysporum protease; assay: Second pH profile, pro-trypsin-like F. oxysporum protease assay; type: biochemical, Fusarium oxysporum; conditions: 15 minutes, room temperature
Description: A second pH profile is determined utilizing the pro-trypsin-like F. oxysporum protease assay whereby p45 metalloprotease activity is determined based on the processing of pro-trypsin-like F. oxysporum protease to active trypsin-like F. oxysporum protease Reaction mixtures contain 125 ug of purified pro-trypsin-like F. oxysporum protease and 0.13 ug of purified p45 metalloprotease (i.e. a molar ratio of pro-trypsin-likeF. oxysporum protease/ p45=1750:1) are added to "universal-buffer" solutions prepared at different pH's (i.e. pH values of 2.72, 4.11, 5.2, 6.05, 6.46, 6.98, 8.18, 9.02, 10.03, and 11.01) and the reaction mixtures are incubated for 15 minutes at room temperature. After incubation, 5 microliters are taken from each sample and added to microtiter wells containing 90 microliters of sample buffer (i.e. 0.1M borate, 2 mM CaCl2, and 10 mM DMG, pH 6.5), and 10 microliters of phosphoramidon (20 ug). […] Phosphoramidon is added to inhibit p45 activity and stop any further maturation of pro-trypsin-like F. oxysporum protease.

[4] = system: succinyl-Ala-Ala-Ala-p-nitroanilide; assay: Hydrolysis of succinyl-Ala-Ala-Ala-p-nitroanilide; type: biochemical
Text: Both p45 metalloprotease and a neutral zinc endopeptidase secreted by Flavobacterium meningosepticum poorly hydrolyze the substrate N-[3-(2--furyl)acryloyl]-Leu-Gly-NH2. However, the neutral zinc endopeptidase secreted by Flavobacterium meningosepticum will hydrolyze the vertebrate elastase substrate succinyl-Ala-Ala-Ala-p-nitroanilide, a substrate that thermolysin cannot hydrolyze (Table 2). Therefore, succinyl-Ala-Ala-Ala-p-nitroanilide hydrolysis by the p45 metalloprotease is investigated. […] This effect further differentiates the p45 metalloprotease from other existing metalloproteases.

[5] = system: pro-trypsin-like Fusarium oxysporum protease; assay: Proteolytic enzyme assay: tryptic activity released from pro-trypsin-like protease, L-BAPNA, 405 nm; type: biochemical
Description: Metalloprotease activity is measured as released trypsin activity from pro-trypsin-like Fusarium oxysporum protease deposited at the Deutsche Sammlung von Mikroorganismen, Gottingen, Germany under the number DSM 2672, after a 30-60 min pre-incubation at 25° C. in 0.1M Tris, 2 mM CaCl2, pH 7 (at lower pH, 100 mM borate, 10 mM DMG, 2 mM CaCl2 is used).
Metalloproteases contain a catalytic zinc metal center which participates in the hydrolysis of the peptide backbone. The active zinc center differentiates these proteases from calpains whose activities are dependent upon the presence of calcium. Confirmation of a protease as a metallo-protease is loss of proteolytic activity accomplished by removal of the zinc center with 1,10-phenanthroline (1 mM) followed by titration with Zn^2+ (0.1-100 μM) to restore full activity.
However, when combined the metalloprotease cleaves recombinant pro-trypsin-like Fusarium oxysporum protease disclosed, supra to yield the active tryptic protease. Metalloprotease activity is halted upon the addition of 1 mM 1,10-phenanthroline (Table 1).

[6] = system: FAGLA: N-(3-[2-Furyl]Acryloyl)-Gly-Leu amide; assay: FAGLA hydrolysis (345 nm); type: biochemical
Description: The thermolytic substrate FAGLA: N-(3-[2-Furyl]Acryloyl)-Gly-Leu amide is used to further characterize the p45 metalloprotease and B.t. thermolysin. Reaction mixtures contain 100 microliters of N-(3-[2-Furyl]Acryloyl)-Gly-Leu amide (FAGLA) (2 mM) and 100 microliters of various concentrations of either thermolysin (Boehringer Mannheim) or purified p45 metalloprotease. Thermolytic activity is determined as a decrease in absorbance at 345 nm on the recording spectrometer for one minute(Shimadzu, UV160U). The linear range of the assay for thermolysin is 10-500 ug/ml thermolysin in the assay mix.

FTC-labeled casein [7] = assay: Protease analysis using FTC-labeled casein; type: biochemical
Description: Samples are incubated at room temperature for 30 minutes.

succinylated casein = assay: Casein hydrolysis, succinylated casein assay (QuantiCleave, BCA, 600 nm); type: biochemical
Description: 400 ul of casein solution (Pierce) is added to small test tubes along with 100 ul of protease. The tubes are vortexed and incubated at room temperature for 40 minutes. The incubation (and assay) buffer is 0.1 M borate, 2 mM CaCl2, and 10 mM dimethylglutarate, pH 6.5. At the end of the incubation, 60 microliters of trichloroacetic acid (100% w/v) is added, and the tubes are vortexed and centrifuged for 1 minute at 5000×g. 20 microliters of the resulting supernatant is placed into a microtiter plate well with 200 microliters of the BCA working reagent (Pierce). The plates are then vortexed and incubated another 30 minutes, then read at 600 nm using a Biomek 1000 microtiter plate reader.
400 microliters of casein solution (Pierce) are added to small test tubes along with 100 microliters of protease in buffer "A" (0.1M borate, 2 mM CaCl2 and 10 mM dimethylglutaric acid). At the end of the incubation, 60 microliters of trichloroacetic acid (100% w/v) is added, and the tubes are vortexed and centrifuged for 1 minute at 5000×g. 20 microliters of the resulting supernatant is placed into a microtiter plate well with 200 microliters of the BCA working reagent (Pierce). The plates are then vortexed and incubated another 30 minutes, then read at 600 nm using a Biomek 1000 microtiter plate reader.

FTC-labeled casein [8] = assay: pH profile, FTC-casein hydrolysis; type: biochemical
Description: Purified p45 metalloprotease (10 microliters, 0.005 mg/ml) is added to 30 microliters of Universal pH buffer (pH 5-11.5), and 20 microliters of FTC-labeled casein are incubated at 37° C. for 1-hour. 150 microliters of 5% TCA is added to acidify and precipitate casein (1-hour at room temperature). […] Samples are then analyzed on the fluorimeter (slit width=2.5 nm; excitation freq.=490 nm; emission freq.=525 nm; integration time=2 sec).

B1: p45 Metalloprotease: metalloprotease purified from Fusarium oxysporum DSM 2672 broth, 45 kDa band; also produced recombinantly in A. oryzae (protein)
chain: MRFSDSLLLIGLSSLAGAHPSRRAPNPSPLSKRGLDLEAFKLPPMAEYVPQDEVPDDVSAKVVTKRADYTETAKDLVKSTFPKATFRMVTDHYVGSNGIAHVNFKQTVNGIDIDNADFNVNIGADGEVFSYGNSFYEGKIPGPLTKRDEKDPVDALKDTVDVLSLPVEADKAKAEKKSKNHYTFTGTKGTVSKPEAKLTYLVDENKELKLTWRVETDIVDNWLLTYVNAAKTDEVVGVVDYVNEATYKVYPWGVNDPSKGSRSTVENPWNLAASEFTWLSDGSNNYTTTRGNNGIAQVNPSGGSTYLNNYRPDSPSLKFEYDYSTSTTTPTTYRDASIAQLFYTANKYHDLLYLLGFTEQAGNFQTNNNGQGGVGNDMVILNAQDGSGTNNANFATPADGQPGRMRMYLWTYSTPQRDCSFDAGVVIHEYTHGLSNRLTGGPANSGCLPGGESGGMGEGWGDFMATAIHIQSKDTRASNKVMGDWVYNNAAGIRAYPYSTSLTTNPYTYKSVNSLSGVHAIGTYWATVLYEVMWNLIDKHGKNDADEPKFNNGVPTDGKYLAMKLVVDGMSLQPCNPNMVQARDAIIDADTALTKGANKCEIWKGFAKRGLGTGAKYSASSRTESFALPSGC
acceptable pH range (stability) [1]: 6.5-9 | pH at which most stable ([1]; pH 3.5-10): 8 | Specific Activity, substrate pro-trypsin [2]: 1.2 g trypsin/min*mg | share of activatable pro-trypsin-like protease processed ([2]; A. oryzae broth with approx. 90 mg/L recombinant p45, pro-trypsin 100 ug/ml to 13 mg/ml, room temperature, within 1 hour): 80-100% | moles of pro-trypsin-like protease processed per mole of metalloprotease ([2]; pro-trypsin-like protease 100 ug/ml, within 1 hr.): about 50 moles | level of processed pro-trypsin-like protease at pH 6.5 relative to the level at pH 9 [3]: approximately 24% | pH of maximum levels of processed pro-trypsin-like protease ([3]; molar ratio pro-trypsin/p45 1750:1): 9.5 | Specific Activity, substrate Ala-Ala-Ala-pNA [4]: < 2 pmol pNA/min*mg | hydrolysis of succinyl-Ala-Ala-Ala-p-nitroanilide ([4]; substrate 4.4 mM in 0.1M Tris, pH 8): neither, the p45 metalloprotease nor the B.s. thermolysin would hydrolyze | specific activity relative to the conventional Bacillus metalloprotease ([5]; based on absorbance at 280 nm, preparative IEF fraction, FIG. 2): about 10 fold | tryptic activity of the sample alone ([5]; sample alone): do not contain any tryptic activity | Tryptic Activity ([5]; without 1,10-phenanthroline, without Zn2+): 1.33 Δ Abs/min × 10^-4 | Specific Activity, substrate FAGLA [6]: 0.76 -AU/sec*mg | specific activity for FAGLA, times lower than that of thermolysin [6]: approximately 250 times | Specific Activity, substrate FTC-Labelled Casein (FTC-labeled casein [7]): 170 FU/min*mg | FTC-casein hydrolysis relative to trypsin-like F. oxysporum protease (FTC-labeled casein [7]; on a molar basis at pH 9): approximately 16 fold | Specific Activity, substrate Succinylated Casein (maximal level) (succinylated casein): 0.30 O.D. | maximum absorbance, casein hydrolysis (succinylated casein; pH 6.5, room temperature, 40 minutes, FIG. 8): around 0.3 O.D. units | maximum absorbance / maximal hydrolyzed casein relative to the other proteases (succinylated casein; relative to thermolysin, dispase, B.s. neutral metalloprotease, listed as p45): about 60% | pH at which the protease functions optimally (FTC-labeled casein [8]): ~9.5 | optimum pH for hydrolysis of FTC-casein (FTC-labeled casein [8]; universal pH buffers pH 5-11.5, 37° C., 1 hour, FIG. 10): 9.5
